Laboratory results: the supplement of paper PMC10724198
± gives the standard deviation of the averaged measurements.

Test system: Saccharomyces cerevisiae
Assay: protein stability index of tFT-peptide fusion (C-terminal peptide) (PSI (0-1 scale)); higher = more stable (slower turnover)
Settings: genetic background: wild type; temperature: 30 C
Description: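 MPS profiling in S. cerevisiae of the yeast C-terminome library: the last 12 aa of each annotated ORF are fused to the C-terminus of a sfGFP-mCherry timer, after a GGGS linker. Cells are FACS-sorted into 8 mCherry/sfGFP bins and deep-sequenced. PSI runs from 0 (unstable) to 1 (stable); wild type and das1Δ backgrounds, two technical replicates each.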

Sequence | protein stability index
SPYLKHLDSRKQ [CTS2 C-terminal 12 aa] | 0.7 ± 0.045
SQEPQYKLFRGR [MRPL16 C-terminal 12 aa] | 0.731 ± 0.069
SQNELRFEERLL [INO1 C-terminal 12 aa] | 0.675 ± 0.025
SRIKWHVGTAYS [HHY1 C-terminal 12 aa] | 0.6653 ± 0.0066
SRVGRKVATLDQ [YAT2 C-terminal 12 aa] | 0.694 ± 0.038
SSKGFFSKLGCC [YCK2 C-terminal 12 aa] | 0.677 ± 0.011
SSSNKSQRNGRY [AIR1 C-terminal 12 aa] | 0.68967 ± 0.00054
SSSSTSVNKTLD [VIP1 C-terminal 12 aa] | 0.707 ± 0.053
SSTTEETILVRK [RKM1 C-terminal 12 aa] | 0.7025 ± 0.0051
STCIYLYTHNSM [YBR206W C-terminal 12 aa] | 0.673 ± 0.023
STHIDHDKFSFF [CDC8 C-terminal 12 aa] | 0.694 ± 0.021
STQHKSTTSFTQ [TGL4 C-terminal 12 aa] | 0.655 ± 0.022
STTTVIQGEINK [LRG1 C-terminal 12 aa] | 0.713 ± 0.036
SVESLMTQQDVE [BIO4 C-terminal 12 aa] | 0.6941 ± 0.0037
SVLKRVRKLFGE [VMA7 C-terminal 12 aa] | 0.684 ± 0.02
SWETKLKQNILE [CSN9 C-terminal 12 aa] | 0.6441 ± 0.0042
SWISNNTNVPKK [ARF3 C-terminal 12 aa] | 0.678 ± 0.011
SYFNTIMHNCKP [SET4 C-terminal 12 aa] | 0.715 ± 0.0071
TAFLNKVYKRSK [ERG20 C-terminal 12 aa] | 0.693 ± 0.043
TANKVELMANIV [MAK31 C-terminal 12 aa] | 0.686 ± 0.041
TASFAGSKKTFD [NSR1 C-terminal 12 aa] | 0.678 ± 0.012

Sequence | protein stability index
TDDKEKLLKTLK [ACC1 C-terminal 12 aa] | 0.734 ± 0.023
TDFENPNFRYTL [DAL5 C-terminal 12 aa] | 0.794 ± 0.12
TDLPKWAQLDNS [PUS6 C-terminal 12 aa] | 0.702 ± 0.026
TFCVYENLKHRL [FLX1 C-terminal 12 aa] | 0.726 ± 0.017
TGGCSSSKFSLS [SKN1 C-terminal 12 aa] | 0.68965 ± 0.00013
THFFSIEWAGFG [SEN34 C-terminal 12 aa] | 0.725 ± 0.041
TIAAGKISEITQ [HBS1 C-terminal 12 aa] | 0.697 ± 0.01
TIEEVKIPGLDI [MRPL50 C-terminal 12 aa] | 0.711 ± 0.0074
TISNWIQETKEV [STO1 C-terminal 12 aa] | 0.7293 ± 0.0034
TKARTLGEGSVN [YDR476C C-terminal 12 aa] | 0.674 ± 0.021
TKGEVATKPASY [MGA1 C-terminal 12 aa] | 0.703 ± 0.018
TKHTPKYLLNTI [YNL179C C-terminal 12 aa] | 0.6621 ± 0.00097
TKRLRKNKCIIM [RHO4 C-terminal 12 aa] | 0.702 ± 0.024
TKYKTVTVTAKT [YMR244W C-terminal 12 aa] | 0.71 ± 0.034
TNGITTERHKKK [NTG2 C-terminal 12 aa] | 0.668 ± 0.028
TNTVPATSASSK [RGC1 C-terminal 12 aa] | 0.701 ± 0.04
TNWGQHKTVQNT [PPE1 C-terminal 12 aa] | 0.713 ± 0.019
TNYEVTDTYTNS [SOM1 C-terminal 12 aa] | 0.712 ± 0.017
TPRLYTDRSRDF [RPB2 C-terminal 12 aa] | 0.713 ± 0.013
TPSEDDDGAVEI [LSM3 C-terminal 12 aa] | 0.749 ± 0.062
TPTDSTPTKKDI [LAC1 C-terminal 12 aa] | 0.725 ± 0.019

Sequence | protein stability index
TRKKGGRRGRRL [RPS14A C-terminal 12 aa] | 0.676 ± 0.011
TRMSSPPPSTSS [SET2 C-terminal 12 aa] | 0.6896 ± 0.0047
TSDQKNKRTQFS [RPB9 C-terminal 12 aa] | 0.667 ± 0.07
TVFETLTLHSAN [JSN1 C-terminal 12 aa] | 0.68218 ± 0.00033
TVGYGILKVMGF [PHO91 C-terminal 12 aa] | 0.656 ± 0.009
TVSLPSRYSRYN [ALR2 C-terminal 12 aa] | 0.684 ± 0.033
VAKKRLSSRSKP [YNL162W-A C-terminal 12 aa] | 0.658 ± 0.02
VARYKMVSKRIW [EMP65 C-terminal 12 aa] | 0.654 ± 0.018
VDIPVDVKKLQI [BUL2 C-terminal 12 aa] | 0.696 ± 0.018
VDMKWGSFPIFQ [YPR1 C-terminal 12 aa] | 0.7 ± 0.027
VDSEGQIRYAKE [YCR087C-A C-terminal 12 aa] | 0.6705 ± 0.0015
VEIPTVESTKSG [RNA14 C-terminal 12 aa] | 0.7544 ± 0.0014
VEPVYLCASLSL [YCR047W-A C-terminal 12 aa] | 0.6733 ± 0.00078
VFEVFSRMDMLL [VPS74 C-terminal 12 aa] | 0.773 ± 0.027
VFGGCATTWIVL [ATS1 C-terminal 12 aa] | 0.692 ± 0.0096
VFLELKKAQRWA [API2 C-terminal 12 aa] | 0.686 ± 0.011
VFNDIFRLNYSA [NTF2 C-terminal 12 aa] | 0.504 ± 0.0084
VFPETDSIFEPV [RAF1 C-terminal 12 aa] | 0.715 ± 0.0081
VGKKLETFKKTN [WBP1 C-terminal 12 aa] | 0.48 ± 0.019
VGRHSSRLMCPG [YBR126W-B C-terminal 12 aa] | 0.689 ± 0.022
VHAENTTLREIL [CDC50 C-terminal 12 aa] | 0.7076 ± 0.0047

Sequence | protein stability index
VHLEKKKDEDKK [UBX7 C-terminal 12 aa] | 0.668 ± 0.021
VIIVPIAVHFSR [SNC1 C-terminal 12 aa] | 0.581 ± 0.0095
VILSETVVILYY [YKR032W C-terminal 12 aa] | 0.345 ± 0.0067
VKFGLQMAYLQS [YMR007W C-terminal 12 aa] | 0.6586 ± 0.0059
VLGDVIKIAQRL [HOM6 C-terminal 12 aa] | 0.747 ± 0.031
VLSNNVPYTQPR [RCH1 C-terminal 12 aa] | 0.745 ± 0.054
VLYIILYYIILY [YGL024W C-terminal 12 aa] | 0.181 ± 0.035
VMQELRKLKNAM [GLO4 C-terminal 12 aa] | 0.64 ± 0.025
VMSLYNLACKYI [SAM37 C-terminal 12 aa] | 0.577 ± 0.056
VNELVELMTQSA [SEC18 C-terminal 12 aa] | 0.695 ± 0.014
VNERSHDVKFTK [YIL165C C-terminal 12 aa] | 0.689 ± 0.01
VNHSFEFNDVLQ [IFH1 C-terminal 12 aa] | 0.738 ± 0.025
VPGGKKTPTEAL [LSM5 C-terminal 12 aa] | 0.707 ± 0.026
VPQLHSFIAKEQ [RMD9 C-terminal 12 aa] | 0.3 ± 0.0037
VPSLLILSVFFS [YPS3 C-terminal 12 aa] | 0.273 ± 0.012
VQEWEVLGRVDV [CPD1 C-terminal 12 aa] | 0.692 ± 0.022
VQQMVEMQGKMR [SGM1 C-terminal 12 aa] | 0.68508 ± 0.00063
VSDSSYDEYSNE [SYT1 C-terminal 12 aa] | 0.672 ± 0.03
VSKTYEEHIETV [JEN1 C-terminal 12 aa] | 0.692 ± 0.013
